Target: h219 (VH9/VK2)
Test: BLI

Kd: 0.66 nM
B1: his tagged human LAIR1 recombinant protein (receptor)
chain: QEEDLPRPSISAEPGTVIPLGSHVTFVCRGPVGVQTFRLERDSRSTYNDTEDVSQASPSESEARFRIDSVREGNAGLYRCIYYKPPKWSEQSDYLELLVKESSGGPDSPDTEPGSSAGPTQRPSDNSHNEHAPASQGLKAEHLY

From PMC9534319 (2022)
